The text below walks through data of patent US20260125477A1 (BEIJING MABWORKS BIOTECH, published 2026).

The target of assay [1] is T1, human B7-2/CD86 protein, with His tag (human, UniProt P42081 26-247, limits assumed).
T1 construct: Bought protein
T1 sequence (looked up): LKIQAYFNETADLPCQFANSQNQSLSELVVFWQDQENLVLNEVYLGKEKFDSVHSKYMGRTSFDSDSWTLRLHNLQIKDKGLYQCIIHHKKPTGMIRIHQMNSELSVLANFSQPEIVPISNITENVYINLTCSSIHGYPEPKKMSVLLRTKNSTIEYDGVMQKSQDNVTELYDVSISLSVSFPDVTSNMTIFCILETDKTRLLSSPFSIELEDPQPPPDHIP
The assay is described as follows: SPR (Biacore T200), antibody captured on Protein A chip. The method, then: (§1) The anti-human B7-H3 antibodies were tested for their binding capability to B7 family proteins by SPR using Biacore T200 biosensor (Biacore, US) provided with a pre-fixed Protein A sensor chip.
(§2) The dissociation was monitored for 600 sec. The data was analyzed using Biacore 8k evaluation software version 3.0, to obtain the binding responses, and the protein concentration-binding response curves were plotted, to determine the cross-reaction of the anti-human B7-H3 antibodies to the B7 family proteins.

The target in assay [2] is T2, human PD-L2/B7-DC protein, with His tag (human, UniProt Q9BQ51 20-219, limits assumed).
T2 construct: Bought protein
T2 sequence (looked up): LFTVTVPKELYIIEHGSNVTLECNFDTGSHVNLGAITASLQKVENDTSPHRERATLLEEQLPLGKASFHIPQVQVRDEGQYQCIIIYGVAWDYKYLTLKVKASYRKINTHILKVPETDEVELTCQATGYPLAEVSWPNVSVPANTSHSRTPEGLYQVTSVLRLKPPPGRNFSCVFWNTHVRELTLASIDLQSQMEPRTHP
The description is as above. The method, then: as §1, §2

Assay [3] deals with T3, human B7-H2/ICOSLG protein, with His tag (human, UniProt O75144 19-258, limits assumed).
T3 construct: Bought protein
T3 sequence (looked up): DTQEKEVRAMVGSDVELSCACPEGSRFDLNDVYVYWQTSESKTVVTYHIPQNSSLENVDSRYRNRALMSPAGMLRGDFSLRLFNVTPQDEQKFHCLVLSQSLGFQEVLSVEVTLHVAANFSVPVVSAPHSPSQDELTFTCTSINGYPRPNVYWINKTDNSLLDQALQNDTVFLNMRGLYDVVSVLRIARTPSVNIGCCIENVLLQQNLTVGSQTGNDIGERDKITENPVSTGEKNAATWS
The assay is described as above. The method, then:
as §1, §2

Assay [4] addresses T4, recombinant human CD80 protein (human B7-1/CD80 protein, with His tag) (human, UniProt P33681 35-242).
T4 construct: Bought protein
T4 sequence (looked up): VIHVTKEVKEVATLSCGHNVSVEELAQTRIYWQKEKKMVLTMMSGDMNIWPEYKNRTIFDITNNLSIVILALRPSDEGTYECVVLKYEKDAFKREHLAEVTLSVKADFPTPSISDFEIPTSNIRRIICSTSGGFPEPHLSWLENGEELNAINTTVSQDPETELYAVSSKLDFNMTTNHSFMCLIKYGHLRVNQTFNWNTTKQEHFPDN
The assay is described as follows: SPR (Biacore T200), 6B5 captured on Protein A chip; response against concentration. The procedure:
as §1, §2
A general note: SPR reads the build-up and loss of mass on a sensor chip optically.

B1: 10F5 (antibody, human IgG1, kappa, V domains shown)
VH: QVQLVQSGAEVKKPGSSVKVSCKASGGTFSSQAISWVRQAPGQGLEWMGRIIPMLGIGDYAQSFQGRVTITADKSTSTAYLEVSSLGSEDTAVYYCAREGIAALGTNYYYGMDVWGQGTAVTVSS
VL: EIVMTQSPSSVSASVGDRVTITCRASQGISRWLAWYQQKPGKAPKLLIYVASSLQSGVPSRFSGSGSGTDFTLTISSLQPEDFATYYCQQANSFPFTFGPGTKVDIRR
notes: also called Ab10F5
In the case of B1, the binding result in assay [1], in assay [2] and in assay [3] was “no binding (tested: 200 nM)” each time.

B2: 6B5 (antibody, human IgG1, kappa, V domains shown)
VH: QVQLVESGPGLVKPSQTLSLTCTVSDGSISSGGYYWSWIRQHPGKGLEWIGYIYYSGGTYYSPSLKSRVTISVDTSKNQFSLKLTSVTAADTAVYYCARRAGYSSSFDSWGQGILVTVSS
VL: EIVLTQSPLSLPVTPGEPASISCRSSQSLLYSNGYTYLDWYLQKPGQSPQFLIYLGFNRASGVPDRFSGSGSGTDFTLKISRVEAEDVGVYYCMQGLQTPYTFGQGTKLEIKR
notes: also called 6B5-WT; Ab6B5
For B2, the binding result in assay [4] is “no binding (tested: 200 nM)”.
